Measurements reported in patent publication US11559589B2, “Compositions and methods for detection and modulation of T cell mediated immune responses against viral vectors utilized for gene therapy” (The Children's Hospital of Philadelphia, priority 2006, dated 2023).
Like-named read-outs stand apart in the source and are kept apart here.

T1: AAV-2 capsid (AAV-p74 peptide) peptide on HLA-B*07:02 (human)
T1 peptide: VPQYGYLTL


Assays:
[1] = target: T1, AAV-2 capsid (AAV-p74 peptide) peptide …; assay: multimer staining
[2] = target: MHC molecules displaying the AAV peptide epitopes on Malme-3 fibroblasts (UniProt P01889+P03135)
Sequence of MHC molecules displaying the AAV peptide epitopes on Malme-3 fibroblasts (P61769 21-119): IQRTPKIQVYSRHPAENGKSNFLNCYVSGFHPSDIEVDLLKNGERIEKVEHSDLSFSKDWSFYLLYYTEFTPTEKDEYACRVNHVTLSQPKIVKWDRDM
Sequence of MHC molecules displaying the AAV peptide epitopes on Malme-3 fibroblasts (P01889 25-362): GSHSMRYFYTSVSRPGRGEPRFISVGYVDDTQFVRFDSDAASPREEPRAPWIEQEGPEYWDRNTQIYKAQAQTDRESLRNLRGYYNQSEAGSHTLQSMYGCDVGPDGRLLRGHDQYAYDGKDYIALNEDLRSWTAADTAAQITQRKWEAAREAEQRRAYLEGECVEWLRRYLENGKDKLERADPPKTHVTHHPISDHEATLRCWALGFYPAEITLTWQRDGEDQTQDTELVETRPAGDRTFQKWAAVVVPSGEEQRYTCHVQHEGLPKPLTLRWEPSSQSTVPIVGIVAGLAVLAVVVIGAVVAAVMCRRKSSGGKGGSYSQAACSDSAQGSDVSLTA
Method: AAV-scTCR multimer was tested in vitro using a normal human fibroblast cell line positive for HLA-B*0702 (Malme-3 available from the ATCC repository). Cells were peptide loaded with AAV capsid epitopes at a concentration of 10 ug/ml for 2 hrs at 37° C. and then stained with the AAV-scTCR multimer (FIG. 10); alternatively, cells were transduced with an AAV vector at an MOI of 5×10^5 or 1×10^6 and stained 24 or 48 hours later (FIG. 11).

[3] = system: lymph node cells and splenocytes from HLA-B*0702 transgenic mice; assay: AAV-scTCR multimer staining of cells from HLA-B*0702 transgenic mice after intravenous AAV vector; assay type: cell-based
Text: FIGS. 12A and 12B are a pair of histograms swing AAV-scTCR multimer staining of CD11c+CD19-cells collected from HLA B*0702 mice one week after intravenous infusion of 1E11 vector genomes (vg) of AAV.

[4] = target: AAV-p74 peptide/HLA-B7 complexes on cell surface of JyA2B7 cells (UniProt P01889+P03135); conditions: for minimum AAV-p74 peptide loading concentration stained: 0.5 μg multimer
Sequence of AAV-p74 peptide/HLA-B7 complexes on cell surface of JyA2B7 cells (P61769 21-119): as the sequence (P61769 21-119) above
Sequence of AAV-p74 peptide/HLA-B7 complexes on cell surface of JyA2B7 cells (P01889 25-362): as the sequence (P01889 25-362) above
Text: AAV-p74 peptide loaded HLA-B7-positive human lymphoblastoid cell line (JyA2B7) was used to determine whether AAV-a-scTCR can bind to AAV-p74 peptide/HLA-B7 complexes on cell surface.

Molecule	binding result [1]	staining of peptide-loaded fibroblasts ([2]; AAV capsid epitopes 10 ug/ml, 2 hrs, 37° C.)	staining of AAV-transduced fibroblasts ([2]; AAV vector MOI 5×10^5 or 1×10^6, stained 24 or 48 hours later)	staining of lymph node cells and splenocytes [3]	minimum AAV-p74 peptide loading concentration stained ([4]; PLE added during loading) [µg/mL]	minimum AAV-p74 peptide loading concentration stained ([4]; typical conditions) [µg/mL]	staining of JyA2B7 cells ([4]; cells loaded with 50 μg/ml AAV-p74 peptide, 0.025 μg/test multimer)
AAV-a-AJ31 (TCR, V domains shown) Valpha: SQQGEEDPQALSIQEGENATMNCSYKTSINNLQWYRQNSGRGLVHLILIRSNEREKHSGRLRVTLDTSKKSSSLLITASRAADTASYFCATLYNARLMFGDGTQLVVKP Vbeta: NAGVTQTPKFRVLKTGQSMTLLCAQDMNHEYMYWYRQDPGMGLRLIHYSVGEGTTAKGEVPDGYNVSRLKKQNFLLGLESAAPSQTSVYFCASRSGSAGAFFGQGTRLTVV	recognises						
p74-scTCR multimer: PE-conjugated multimer generated from biotinylated AAV-a-AJ31 scTCR-BirA fusion protein (protein, left off: things letters cannot carry; a dimerising Fc or GST; small tags and cut ends, PE-conjugated multimer generated from biotinylated AAV-a-AJ31 scTCR-BirA fusion protein) alpha: SQQGEEDPQALSIQEGENATMNCSYKTSINNLQWYRQNSGRGLVHLILIRSNEREKHSGRLRVTLDTSKKSSSLLITASRAADTASYFCATLYNARLMFGDGTQLVVKP beta: NAGVTQTPKFRVLKTGQSMTLLCAQDMNHEYMYWYRQDPGMGLRLIHYSVGEGTTAKGEVPDGYNVSRLKKQNFLLGLESAAPSQTSVYFCASRSGSAGAFFGQGTRLTVV		positive staining	positive staining	positive staining	1	5	Specific staining
AAV-b-scTCR-BirA (TCR, V domains shown) Valpha: TQLLEQSPQFLSIQEGENLTVYCNSSSVFSSLQWYRQEPGEGPVLLVTVVTGGEVKKLKRLTFQFGDARKDSSLHITAAQPGDTGLYLCAGKKTNDYKLSFGAGTTVTVRA Vbeta: ETGVTQTPRHLVMGMTNKESLKCEQHLGHNAMYWYKQSAKKPLELMFVYSLEERVENNSVPSRFSPECPNSSHLFLHLHTLQPEDSALYLCASSQDRVNLAGEQYFGPGTRLTVT	recognises						
